Experimental data taken from the supplement of paper PMC9732359.
± gives the uncertainty stated by the source.

Assay: protein stability index of a GFP-peptide fusion (yeast GPS) (PSI 1-4); higher = more stable; sorted into four equal gates, so the index is relative within each strain
In short: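 Tiled yeast protein peptides of 17 residues were each joined downstream of GFP, on plasmids that also express Cherry. The pooled library was maintained in yeast, and mid-log cultures in leucine-free medium were sorted into four equal gates on the GFP/Cherry ratio. Plasmids from every gate were amplified by PCR and sequenced on Illumina, with barcodes linking reads to strains. The protein stability index of a peptide is its gate-number-weighted read frequency summed over the gates.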

MNGNGKPGIPRGNTKIH [SIR3]
protein stability index (pdr5∆): 2.83 ± 0.23
protein stability index (san1∆): 3.32 ± 0.094
protein stability index (ubr1∆): 3.25 ± 0.18

NTGIVSSTTGMSYVVRI [RPT3]
protein stability index (doa10∆): 3.17 ± 0.11
protein stability index (pdr5∆): 3.04 ± 0.19
protein stability index (san1∆): 3.31 ± 0.11
protein stability index (ubr1∆): 3.25 ± 0.09

NDNYSSDMENDNLLLNL [REC8]
protein stability index (doa10∆): 2.9 ± 0.09
protein stability index (pdr5∆): 2.96 ± 0.12
protein stability index (san1∆): 2.82 ± 0.1
protein stability index (ubr1∆): 3.09 ± 0.12

DFQIDGNIFELLSDTFE [RRI2]
protein stability index (doa10∆): 2.04 ± 0.095
protein stability index (pdr5∆): 2.47 ± 0.077
protein stability index (san1∆): 2.95 ± 0.11
protein stability index (ubr1∆): 3.16 ± 0.17

NVMTPREQYETQVALNE [UBP6]
protein stability index (doa10∆): 3.17 ± 0.087
protein stability index (pdr5∆): 3.22 ± 0.16
protein stability index (san1∆): 2.83 ± 0.13
protein stability index (ubr1∆): 3.05 ± 0.091

SIPMGGQSINDSLKKLL [ARP9]
protein stability index (doa10∆): 2.39 ± 0.06
protein stability index (pdr5∆): 2.46 ± 0.063
protein stability index (san1∆): 2.47 ± 0.08
protein stability index (ubr1∆): 2.61 ± 0.056

LVDKRIDMLPMLLGTDL [DIS3]
protein stability index (doa10∆): 2.17 ± 0.083
protein stability index (pdr5∆): 2.54 ± 0.1
protein stability index (san1∆): 2.27 ± 0.08
protein stability index (ubr1∆): 2.34 ± 0.059

QETCDKLRARLVEYGFD [SMC2]
protein stability index (doa10∆): 2.17 ± 0.14
protein stability index (pdr5∆): 2.52 ± 0.093
protein stability index (san1∆): 1.96 ± 0.089
protein stability index (ubr1∆): 1.57 ± 0.034

NVAVDIINFGEIEQNTE [RPN10]
protein stability index (doa10∆): 3.23 ± 0.092
protein stability index (pdr5∆): 3.39 ± 0.075
protein stability index (san1∆): 3.27 ± 0.059
protein stability index (ubr1∆): 3.14 ± 0.066

NPHDGVNSIALFVGTDR [RPN14]
protein stability index (doa10∆): 2.08 ± 0.14
protein stability index (pdr5∆): 2.42 ± 0.096
protein stability index (san1∆): 2.33 ± 0.076
protein stability index (ubr1∆): 2.99 ± 0.11

KQYLSASFSLKNGDKPH [RPL6A]
protein stability index (doa10∆): 2.34 ± 0.057
protein stability index (pdr5∆): 1.93 ± 0.045
protein stability index (san1∆): 2.43 ± 0.058
protein stability index (ubr1∆): 2.96 ± 0.029

QELAKSIRSRRPYQVNV [PRE1]
protein stability index (doa10∆): 2.92 ± 0.14
protein stability index (pdr5∆): 2.88 ± 0.078
protein stability index (san1∆): 3.2 ± 0.14
protein stability index (ubr1∆): 3.16 ± 0.078

YNDSATSGEAAALGMGL [RPN2]
protein stability index (doa10∆): 2.32 ± 0.096
protein stability index (pdr5∆): 2.45 ± 0.11
protein stability index (san1∆): 2.99 ± 0.078
protein stability index (ubr1∆): 2.43 ± 0.084

SDRREHDEKLSDELHNQ [LIN1]
protein stability index (pdr5∆): 2.56 ± 0.18
protein stability index (san1∆): 3.19 ± 0.16
protein stability index (ubr1∆): 2.89 ± 0.16

DSKGSLYSVKFAPAHLG [YGL100W/SEH1]
protein stability index (doa10∆): 2.66 ± 0.11
protein stability index (pdr5∆): 3.05 ± 0.13
protein stability index (san1∆): 2.59 ± 0.1
protein stability index (ubr1∆): 2.81 ± 0.062

IPRTFRTPVPSTLMPGG [SNF5]
protein stability index (doa10∆): 2.68 ± 0.066
protein stability index (pdr5∆): 2.18 ± 0.05
protein stability index (san1∆): 2.44 ± 0.045
protein stability index (ubr1∆): 2.65 ± 0.048

EGQENNYNSTSRSTEKK [SIR4]
protein stability index (doa10∆): 3.3 ± 0.17
protein stability index (pdr5∆): 3.26 ± 0.13
protein stability index (san1∆): 2.65 ± 0.17
protein stability index (ubr1∆): 3.25 ± 0.11

QTVSNKEDAKATMENIQ [SRP54]
protein stability index (doa10∆): 2.98 ± 0.062
protein stability index (pdr5∆): 3.18 ± 0.066
protein stability index (san1∆): 2.91 ± 0.075
protein stability index (ubr1∆): 2.99 ± 0.056

QCYKIYDLVILKSGLPL [YMR129W/POM152]
protein stability index (pdr5∆): 2.04 ± 0.12
protein stability index (san1∆): 2.25 ± 0.14
protein stability index (ubr1∆): 1.29 ± 0.059

FKDVEHISFNFSMLQMA [BRR2]
protein stability index (doa10∆): 1.76 ± 0.076
protein stability index (pdr5∆): 1.59 ± 0.056
protein stability index (san1∆): 2.33 ± 0.15
protein stability index (ubr1∆): 2.03 ± 0.049

IPDHLAELIPELYSFQQ [SNF12]
protein stability index (doa10∆): 3.02 ± 0.077
protein stability index (pdr5∆): 2.94 ± 0.07
protein stability index (san1∆): 2.95 ± 0.05
protein stability index (ubr1∆): 2.93 ± 0.059

NGQRSNSIRAREVENSV [SMC1]
protein stability index (doa10∆): 3.31 ± 0.075
protein stability index (pdr5∆): 3.37 ± 0.058
protein stability index (san1∆): 3.36 ± 0.048
protein stability index (ubr1∆): 3.19 ± 0.072

QFVDMVLPNTALKTSIQ [FAS1]
protein stability index (doa10∆): 2.5 ± 0.091
protein stability index (pdr5∆): 1.61 ± 0.05
protein stability index (san1∆): 1.58 ± 0.12
protein stability index (ubr1∆): 1.28 ± 0.039

TRLYDYEIRDIDQDIHG [SSN2]
protein stability index (doa10∆): 3.54 ± 0.11
protein stability index (pdr5∆): 3.55 ± 0.16
protein stability index (san1∆): 3.48 ± 0.094
protein stability index (ubr1∆): 3.49 ± 0.11

DWQKEDGIFSSKTDNIE [YMR153W/NUP53]
protein stability index (san1∆): 3.22 ± 0.15
protein stability index (ubr1∆): 2.86 ± 0.2

NEKIEKRSDLTGANSIY [UBP6]
protein stability index (doa10∆): 2.75 ± 0.086
protein stability index (pdr5∆): 3.01 ± 0.062
protein stability index (san1∆): 3.06 ± 0.075
protein stability index (ubr1∆): 3.15 ± 0.068

LIENGASVRIKDKFNQI [NAS6]
protein stability index (pdr5∆): 3.12 ± 0.18
protein stability index (ubr1∆): 3.27 ± 0.065

VAEKMNGCSGADVKGVC [RPT6]
protein stability index (doa10∆): 3.41 ± 0.24
protein stability index (san1∆): 3.19 ± 0.23
protein stability index (ubr1∆): 3.07 ± 0.11

AMIALSMILIQQTEKLN [RPN2]
protein stability index (doa10∆): 1.32 ± 0.077
protein stability index (pdr5∆): 1.35 ± 0.066
protein stability index (san1∆): 1.45 ± 0.14
protein stability index (ubr1∆): 1.6 ± 0.064

ARLPPRATNCRKRKCGH [RPL40A]
protein stability index (doa10∆): 2.98 ± 0.094
protein stability index (pdr5∆): 3.3 ± 0.15
protein stability index (san1∆): 3.2 ± 0.1
protein stability index (ubr1∆): 3.14 ± 0.11

KKRNPSKQNGSKFHFSW [PRP28]
protein stability index (doa10∆): 2.78 ± 0.054
protein stability index (pdr5∆): 2.62 ± 0.05
protein stability index (san1∆): 2.52 ± 0.052
protein stability index (ubr1∆): 2.49 ± 0.038

SSFSKKTLTEEVTKSSH [YIL149C/MLP2]
protein stability index (doa10∆): 2.69 ± 0.054
protein stability index (pdr5∆): 2.88 ± 0.058
protein stability index (san1∆): 2.77 ± 0.071
protein stability index (ubr1∆): 3.09 ± 0.048

NPSQGVSNSGAQDEEIH [UBP6]
protein stability index (doa10∆): 2.04 ± 0.074
protein stability index (pdr5∆): 2.22 ± 0.068
protein stability index (san1∆): 2.04 ± 0.12
protein stability index (ubr1∆): 2.11 ± 0.059

GLHSSEYKLRSLTLSFI [ECM29]
protein stability index (doa10∆): 2.18 ± 0.057
protein stability index (pdr5∆): 2.21 ± 0.061
protein stability index (san1∆): 2.41 ± 0.066
protein stability index (ubr1∆): 2.46 ± 0.049

YILEAEAAAKEKDELDN [QCR7]
protein stability index (doa10∆): 3.1 ± 0.24
protein stability index (pdr5∆): 3.11 ± 0.11
protein stability index (san1∆): 3.1 ± 0.14
protein stability index (ubr1∆): 3.18 ± 0.079

NQLSQTNKLLFKRVSQT [NUT1]
protein stability index (doa10∆): 1.92 ± 0.042
protein stability index (pdr5∆): 1.36 ± 0.037
protein stability index (san1∆): 1.37 ± 0.083
protein stability index (ubr1∆): 1.38 ± 0.035

GIIVAVDSRATAGNWVA [PRE2]
protein stability index (doa10∆): 1.14 ± 0.064
protein stability index (pdr5∆): 1.46 ± 0.079
protein stability index (san1∆): 1.24 ± 0.13
protein stability index (ubr1∆): 1.54 ± 0.082

NGQSLSPVRSDSADVPA [YMR153W/NUP53]
protein stability index (doa10∆): 3.06 ± 0.081
protein stability index (pdr5∆): 3.15 ± 0.081
protein stability index (san1∆): 3.09 ± 0.11
protein stability index (ubr1∆): 2.91 ± 0.05

NAPAWFKLSSESVIEQI [RPS13]
protein stability index (doa10∆): 1.98 ± 0.064
protein stability index (pdr5∆): 1.73 ± 0.054
protein stability index (san1∆): 2.34 ± 0.13
protein stability index (ubr1∆): 2.48 ± 0.067

EVLLAGFGRKGKAKGDI [RPS23A]
protein stability index (doa10∆): 3.41 ± 0.099
protein stability index (pdr5∆): 3.24 ± 0.093
protein stability index (san1∆): 3.41 ± 0.045
protein stability index (ubr1∆): 3.22 ± 0.071

SVDICNNSKSRYPMNLL [ECM29]
protein stability index (doa10∆): 1.86 ± 0.1
protein stability index (pdr5∆): 2.35 ± 0.056
protein stability index (san1∆): 2.71 ± 0.077
protein stability index (ubr1∆): 1.31 ± 0.079

KQEIREAVELPLVQADL [RPT3]
protein stability index (doa10∆): 3.2 ± 0.13
protein stability index (pdr5∆): 2.81 ± 0.22
protein stability index (san1∆): 3.43 ± 0.12
protein stability index (ubr1∆): 2.96 ± 0.17

MMLGEHLMSWSKTGIIA [SIN4]
protein stability index (doa10∆): 1.6 ± 0.11
protein stability index (pdr5∆): 1.24 ± 0.11
protein stability index (san1∆): 1.06 ± 0.13
protein stability index (ubr1∆): 1.53 ± 0.27

NSDHAKFTIEPGVLPVG [SNF2]
protein stability index (doa10∆): 2.23 ± 0.046
protein stability index (pdr5∆): 2.27 ± 0.054
protein stability index (san1∆): 2.32 ± 0.098
protein stability index (ubr1∆): 1.83 ± 0.046

EVLCSRIIEKSVRRSGA [RRP45]
protein stability index (doa10∆): 2.38 ± 0.066
protein stability index (pdr5∆): 3.21 ± 0.076
protein stability index (san1∆): 2.41 ± 0.1
protein stability index (ubr1∆): 2.94 ± 0.1

INHTILGKLQDVFNLLP [RPN8]
protein stability index (doa10∆): 3.16 ± 0.066
protein stability index (pdr5∆): 3.17 ± 0.081
protein stability index (san1∆): 2.84 ± 0.048
protein stability index (ubr1∆): 2.96 ± 0.046

MLLLNIFISSDHEFVLI [YMR129W/POM152]
protein stability index (doa10∆): 1.64 ± 0.057
protein stability index (pdr5∆): 1.28 ± 0.055
protein stability index (san1∆): 1.32 ± 0.098
protein stability index (ubr1∆): 1.23 ± 0.057

DNSNVMTVKLESITYQK [RGR1]
protein stability index (doa10∆): 2.88 ± 0.096
protein stability index (pdr5∆): 2.43 ± 0.1
protein stability index (san1∆): 3.1 ± 0.12
protein stability index (ubr1∆): 2.93 ± 0.1

SKKVTSGVPRLKEILNV [RPO21]
protein stability index (doa10∆): 1.81 ± 0.1
protein stability index (pdr5∆): 2.06 ± 0.12
protein stability index (san1∆): 1.55 ± 0.23
protein stability index (ubr1∆): 1.1 ± 0.083

TPKGNESEQELSLHTGF [MTR3]
protein stability index (doa10∆): 3.22 ± 0.11
protein stability index (pdr5∆): 3.13 ± 0.1
protein stability index (san1∆): 3.18 ± 0.12
protein stability index (ubr1∆): 3.17 ± 0.061

NTLRMKHGTYDKLDDDG [RPB2]
protein stability index (doa10∆): 2.77 ± 0.077
protein stability index (pdr5∆): 2.83 ± 0.061
protein stability index (san1∆): 2.83 ± 0.063
protein stability index (ubr1∆): 2.89 ± 0.045

DVKVSISHDDLQAVAVA [FAS2]
protein stability index (doa10∆): 2.66 ± 0.076
protein stability index (pdr5∆): 2.6 ± 0.055
protein stability index (san1∆): 1.61 ± 0.065
protein stability index (ubr1∆): 2.22 ± 0.049

NQKLALVIKSGKYTLGY [RPL30]
protein stability index (doa10∆): 2.46 ± 0.11
protein stability index (pdr5∆): 2.87 ± 0.09
protein stability index (san1∆): 2.29 ± 0.13
protein stability index (ubr1∆): 2.93 ± 0.047
